Data: the supplement of paper PMC9170038

Test system: MS2 coat protein
Assay: apparent KD of MS2 coat protein; designed switch direction (-1 OFF switch, 1 ON switch): 1; higher = weaker reporter binding
How it was run: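 RNA switches sharing common flanks were transcribed by stalled E. coli RNA polymerase on Illumina chips. A doubling series of SNAP-549-labelled MS2 coat protein, from 0.7 or 1.5 nM to 3 µM, was applied in Tris-HCl pH 7.5 buffer with KCl, MgCl2, BSA, DTT, tRNA and Tween-20. Each step lasted 0.8–1.5 h at the bottom of the series and 10–20 min at the top. Normalised cluster fluorescence was curve-fitted, giving apparent KD as the per-design median over clusters.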

[1] = input ligand: microRNA oligo, concentration not stated
[2] = Eterna round: R95, input ligand: FMN 200 uM
[3] = Eterna round: R95, input ligand: microRNA oligo, concentration not stated
[4] = Eterna round: R95, input ligand: none

## GUGGUGGGUUGAGGAUAUUGGUUGUUGUUGUCCCACAUGAGGAUCACCCAUGUGGGUUGUGGUUUUGAGAAGGUUGGUUGCUGG [salish99_SSNG2_r04_051] (Eterna round: R96, puzzle: Same State NG 2)
[1]
  apparent KD of MS2 coat protein: 0.0144 µM

## AUUUAACAAGCUUUUUGCUCGUCUUAUAAACAUGAGGAUCACCCAUGUAAUAGCGUGAGAGUAAAUUUUUAAAUAAU [JMF 95] (puzzle: Sensor for hsa-mir-208a)
[2]
  apparent KD of MS2 coat protein: 0.0145 µM
[3]
  apparent KD of MS2 coat protein: 0.0389 µM
[4]
  apparent KD of MS2 coat protein: 0.0148 µM

## CUUUUUAGUGCAGGAUAUGAUCAACAUGAGGAUCACCCAUGUGGCGUUGUGAGUAGGGAGAGAGAUCAGAAGGGCGUCUCCGCG [SS-NG2-LRO12] (Eterna round: R96, puzzle: Same State NG 2)
Input ligand: FMN 200 uM
  apparent KD of MS2 coat protein: 0.0464 µM
[1]
  apparent KD of MS2 coat protein: 0.0623 µM
Input ligand: none
  apparent KD of MS2 coat protein: 0.0423 µM

## CUGAGAUGUCAAGGAUAUCACGUCGAUUAGACGUGAGAAGGUGAUCUGUACAUGAGGAUCACCCAUGUGUUACAUGGAACUCAG [Brourd's SSNG1/1-A2 mod 10] (Eterna round: R96, puzzle: Same State NG 1)
Input ligand: FMN 200 uM
  apparent KD of MS2 coat protein: 0.184 µM
[1]
  apparent KD of MS2 coat protein: 0.0309 µM
Input ligand: none
  apparent KD of MS2 coat protein: 0.0539 µM

## CCGAUGACAGGACAGGAUAUGACUGUCGUCACAUGAGGAUCACCCAUGUCCCGGCAAUGCCACCGUUAGAAGGGUCCUAUCUCGG [Arxeina] (puzzle: Same State 2)
[2]
  apparent KD of MS2 coat protein: 0.0167 µM
[3]
  apparent KD of MS2 coat protein: 0.0163 µM
[4]
  apparent KD of MS2 coat protein: 0.0182 µM

## GUAGCAUACCGAGGAUAUUCAACAUGAGGAUCACCCAUGUGUUUAUUAUAGGCCAAAAGGCCUUGGGAGAAGGCGGAAUGCUAC [Xeonanis - 20 Mod15] (Eterna round: R96, puzzle: Same State NG 2)
Input ligand: FMN 200 uM
  apparent KD of MS2 coat protein: 0.0094 µM
[1]
  apparent KD of MS2 coat protein: 0.0084 µM
Input ligand: none
  apparent KD of MS2 coat protein: 0.0157 µM

## GUACAAAUCAUAGGAUAUGGGCGGGAAUGCCGUCCAGAAGGAUGAACAUGAGGAUCACCCAUGUCCGGCCGCAAAUACGCGGCC [Xexeti] (Eterna round: R96, puzzle: Same State NG 1)
Input ligand: FMN 200 uM
  apparent KD of MS2 coat protein: 0.0626 µM
[1]
  apparent KD of MS2 coat protein: 0.14 µM
Input ligand: none
  apparent KD of MS2 coat protein: 0.209 µM

## AAUUAAGAUUAAGGAUAUCACGUCGAAUAGACGUGAGAAGGUGAUCAUAACAUGAGGAUCACCCAUGUAUUACAUGAAUUAAUU [SSNG1/3-B1] (Eterna round: R96, puzzle: Same State NG 1)
Input ligand: FMN 200 uM
  apparent KD of MS2 coat protein: 0.873 µM
[1]
  apparent KD of MS2 coat protein: 0.218 µM
Input ligand: none
  apparent KD of MS2 coat protein: 0.498 µM

## GCUAGAAUUAAAGCCAACAUGAGGAUCACCCAUGUAUGUUGGUAGGAUAUCGUUUGCUUUGCAAACGAGAAGGGCUAAUCUAGC [JL SSNG3 1.22] (Eterna round: R96, puzzle: Same State NG 3)
Input ligand: FMN 200 uM
  apparent KD of MS2 coat protein: 0.0624 µM
[1]
  apparent KD of MS2 coat protein: 0.0598 µM
Input ligand: none
  apparent KD of MS2 coat protein: 0.0692 µM

## AGAUAACAUGAGGAUCACCCAUGUCAACUAAGUCGAGGAUAUGGGCAUAUUAUAUUAGAACCAGAAGGCGAAUAGA [Mat - Same State 1 - Mod of UCT - D45] (puzzle: Same State 1)
[2]
  apparent KD of MS2 coat protein: 0.0126 µM
[3]
  apparent KD of MS2 coat protein: 0.00403 µM
[4]
  apparent KD of MS2 coat protein: 0.0279 µM

## UUUGCAUGACGAGGAUAUCAUUUAUUUCUUGAUUGAGAAGGCGUUCUUUUUAUUACCUAACAUGAGGAUCACCCAUGUGACAGU [JR_SSNG1_Sub046] (Eterna round: R96, puzzle: Same State NG 1)
Input ligand: FMN 200 uM
  apparent KD of MS2 coat protein: 0.0132 µM
[1]
  apparent KD of MS2 coat protein: 0.0103 µM
Input ligand: none
  apparent KD of MS2 coat protein: 0.0167 µM

## UAAAUAAAGUAAGGAUAUACAUGAGGAUCUCUCGUAGAAGGUACUAUACAUGAGGAUCACCCAUGUGCCGGUCAAUAGACUGGA [Mat - Same State NG 1 - JL mod - D9] (Eterna round: R96, puzzle: Same State NG 1)
Input ligand: FMN 200 uM
  apparent KD of MS2 coat protein: 0.589 µM
[1]
  apparent KD of MS2 coat protein: 0.131 µM
Input ligand: none
  apparent KD of MS2 coat protein: 0.446 µM

## UGUUGUAUUACAGGAUAUCUAUUAGUUUUAUAUAGAGAAGGGUAUUCACAUGAGGAUCACCCAUGUAUAUACGAGGAAGUUGUG [JMF's solution 100] (Eterna round: R96, puzzle: Same State NG 1)
[1]
  apparent KD of MS2 coat protein: 0.0368 µM

## GGUCCAGCCUGAGCUGGACAAAAGCAUGUACAUGAGGAUCACCCAUGUCAUGUACAAGCUUUUUGCUCGUCUUAAGA [Mat - hsa-mir-208a - 88] (Eterna round: R96, puzzle: Sensor for hsa-mir-208a)
Input ligand: FMN 200 uM
  apparent KD of MS2 coat protein: 0.752 µM
[1]
  apparent KD of MS2 coat protein: 0.0154 µM
Input ligand: none
  apparent KD of MS2 coat protein: 0.712 µM

## UAAGUCAUGUAAGGAUAUGCAGCCGAAACGGCUGCAGAAGGUACUAUAAUUACAUGAGGAUCACCCAUGUUAUAAAAUUAAAAU [Mat - Same State NG 1 - JL mod - D79] (Eterna round: R96, puzzle: Same State NG 1)
Input ligand: FMN 200 uM
  apparent KD of MS2 coat protein: 0.0208 µM
[1]
  apparent KD of MS2 coat protein: 0.0311 µM
Input ligand: none
  apparent KD of MS2 coat protein: 0.0573 µM

## UUUACAUUACGAGGAUAUCAAUUAUUUCAUGUAUGAGAAGGCGUUAUUUUUACUACCUUACAUGAGGAUCACCCAUGUUUCAUU [JR_SSNG1_Sub041] (Eterna round: R96, puzzle: Same State NG 1)
[1]
  apparent KD of MS2 coat protein: 0.0403 µM

## AGUAGUUUAACAUGAGGAUCACCCAUGUAUCUAUCUGUAACCUAGGAUAUGGGCGUUGUAUUUAACCAGAAGGAGGAUCGUUUA [JR_SSNG3_Sub047] (Eterna round: R96, puzzle: Same State NG 3)
Input ligand: FMN 200 uM
  apparent KD of MS2 coat protein: 0.0178 µM
[1]
  apparent KD of MS2 coat protein: 0.0225 µM
Input ligand: none
  apparent KD of MS2 coat protein: 0.029 µM

## GAGUAUGAACUACAGGAUAUAUAGCAGAUGACAUGAGGAUCACCCAUGUAAGAGAAAGGAGGGAAAUAGAAGGGUAUGGGAGGUG [JR_SS2_Sub036] (puzzle: Same State 2)
[2]
  apparent KD of MS2 coat protein: 0.0376 µM
[3]
  apparent KD of MS2 coat protein: 0.0339 µM
[4]
  apparent KD of MS2 coat protein: 0.0314 µM

## AGCUAUCGAAAACGAUAGCAUAAGCUUGGACAUGAGGAUCACCCAUGUCAUGUACAAGCUUUUUGCUCGUCUUAAAA [JL zipper 29] (Eterna round: R96, puzzle: Sensor for hsa-mir-208a)
Input ligand: FMN 200 uM
  apparent KD of MS2 coat protein: 0.0323 µM
[1]
  apparent KD of MS2 coat protein: 0.0119 µM
Input ligand: none
  apparent KD of MS2 coat protein: 0.0345 µM

## ACACGGAUACAUGAGGAUCACCCAUGUACAUGGGUUAUUACAAGCUUUUUGCUUGGGAUUAUUGGGAUUAUUAUUAA [Default title] (puzzle: Sensor for hsa-mir-208a version 2)
[2]
  apparent KD of MS2 coat protein: 0.122 µM
[3]
  apparent KD of MS2 coat protein: 0.156 µM
[4]
  apparent KD of MS2 coat protein: 0.153 µM

## AGAUGUUAAUCAGGAUAUGGGCACAUGAGGAUCACCCAUGUAAAUUCGAUACUAUGUGGAGACGUCUAGAAGGGAUGGCUAACA [SameState NG2 #84] (Eterna round: R96, puzzle: Same State NG 2)
Input ligand: FMN 200 uM
  apparent KD of MS2 coat protein: 0.127 µM
[1]
  apparent KD of MS2 coat protein: 0.0822 µM
Input ligand: none
  apparent KD of MS2 coat protein: 0.137 µM

## GGCUAUCGCGUACGAUAGCUUAGGCAUGUACAUGAGGAUCACCCAUGUCAUGUACAGGCUUGUUGCUCGUCUUAUUG [JL-shm-2.37 JL mod] (puzzle: Sensor for hsa-mir-208a)
[2]
  apparent KD of MS2 coat protein: 0.202 µM
[3]
  apparent KD of MS2 coat protein: 0.0158 µM
[4]
  apparent KD of MS2 coat protein: 0.291 µM

## GCUGGAACUCACAUGAGGAUCACCCAUGUUCCGGAAACGGCACAGGAUAUCUGUCCGAAAAGGUCAGAGAAGGGUGGAACCAGC [Fiskers NG3ss - 88] (Eterna round: R96, puzzle: Same State NG 3)
Input ligand: FMN 200 uM
  apparent KD of MS2 coat protein: 0.189 µM
[1]
  apparent KD of MS2 coat protein: 0.0435 µM
Input ligand: none
  apparent KD of MS2 coat protein: 0.0904 µM

## GGAGAACAUGAGGAUCACCCAUGUGAGAGGGAUGUAGGAUAUGUGAGGAGUAGAGGAGGGACAGAAGGACAGAGAU [JR_SS!_Sub069] (puzzle: Same State 1)
[2]
  apparent KD of MS2 coat protein: 0.028 µM
[3]
  apparent KD of MS2 coat protein: 0.0629 µM
[4]
  apparent KD of MS2 coat protein: 0.0526 µM

## CCGUAAUAUGGAGGAUAUGGAGCCUUAUUGGCUCCAGAAGGUCAAAACAUGAGGAUCACCCAUGUAUCGGCGGUCAAUAGACCG [Eli NG1ss - 74] (Eterna round: R96, puzzle: Same State NG 1)
Input ligand: FMN 200 uM
  apparent KD of MS2 coat protein: 0.0421 µM
[1]
  apparent KD of MS2 coat protein: 0.0533 µM
Input ligand: none
  apparent KD of MS2 coat protein: 0.0912 µM

## CGCCGACAUGAGGAUCACCCAUGUCACAACUGGUCAGGAUAUGGUAUGAUUUGGCUAUUGCCAGAAGGGACCUCAG [JR_SS001_Sub712] (Eterna round: R96, puzzle: Same State 1)
Input ligand: FMN 200 uM
  apparent KD of MS2 coat protein: 0.0224 µM
[1]
  apparent KD of MS2 coat protein: 0.0288 µM
Input ligand: none
  apparent KD of MS2 coat protein: 0.0306 µM

## AAGAAACAUGAGGAUCACCCAUGUGUAAAUAUGGGAGGAUAUACAAGGACGUAAGUCAAGGUAGAAGGCCUAAGAA [Mat - Same State 1 - Meechl mod - D137] (Eterna round: R96, puzzle: Same State 1)
Input ligand: FMN 200 uM
  apparent KD of MS2 coat protein: 0.031 µM
[1]
  apparent KD of MS2 coat protein: 0.155 µM
Input ligand: none
  apparent KD of MS2 coat protein: 0.234 µM

## AACAAUCUAUCUGAGGAUAUCAUGAAAUAAACAUGAGGAUCACCCAUGUGCAGGAAAACUGCAUAUGAGAAGGCAGUUAGAUUGA [salish99_ss2_r3_053] (puzzle: Same State 2)
[2]
  apparent KD of MS2 coat protein: 0.0455 µM
[3]
  apparent KD of MS2 coat protein: 0.612 µM
[4]
  apparent KD of MS2 coat protein: 0.568 µM

## GGUAGGUUACUACCAACACAUGAGGAUCACCCAUGUUAGUGGGAGGAUAUGGUACCUAUUUGGUACCAGAAGGUCCAGUUAAUU [Fiskers NG3ss - 15] (Eterna round: R96, puzzle: Same State NG 3)
Input ligand: FMN 200 uM
  apparent KD of MS2 coat protein: 0.131 µM
[1]
  apparent KD of MS2 coat protein: 0.161 µM
Input ligand: none
  apparent KD of MS2 coat protein: 0.435 µM

## UUACUCAUGUAAGGAUAUGCAGCCGUUUCGGCUGCAGAAGGUACUAUAAUACAUGAGGAUCACCCAUGUCUCUAUAAUUUAGUG [JL SSNG1 1.30] (Eterna round: R96, puzzle: Same State NG 1)
Input ligand: FMN 200 uM
  apparent KD of MS2 coat protein: 0.102 µM
[1]
  apparent KD of MS2 coat protein: 0.0386 µM
Input ligand: none
  apparent KD of MS2 coat protein: 0.0497 µM

## GCUACCAAAGAAGCCAACAUGAGGAUCACCCAUGUAUGUUGGUAGGAUAUCGUAUGCAAAGCAUACGAGAAGGGCUAAGGUAGC [Mat - Same State NG 3 - JL Mod - D78] (Eterna round: R96, puzzle: Same State NG 3)
[1]
  apparent KD of MS2 coat protein: 0.0869 µM
